Assay: yeast display, Sf9 membrane polyspecificity reagent, FACS + sequencing; frameworks hold sequencing errors
In short: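 Sorting gates, low and high (top ~1%), were placed on anti-HA fluorescence to track expression and on streptavidin fluorescence to track reagent binding. A clone's polyreactivity label is taken from the gate it came out of. The reagent was 10% biotinylated, detergent-solubilized Sf9 membrane, applied for 1 hour at 4 °C to galactose-induced yeast display cells.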

Row | Sequence | polyreactivity (PSR sort gate)
1 | QFQLVESGGGLVQAGGSLRLSCAASGFTFAYYAMGWYRQAPGKERELVAAITYSGGSTYYADSVKGRFTISRDNAKNTVYLQMNSLKPEDTAVYDCAAYPSRRRRGDEDDYWGQGTQVTVSS | high polyreactivity
2 | QVQLVESGGGLVQAGGSLRLSCAASGGIFKYNAMGWYRQAPGKERELVAAIDTSGGSTYYADSVKGRFTISRDNAKNTVYLQMNSLKPEDTAVYYCARRWSYQRPSFEYDSWGQGTQVTVSS | low polyreactivity
3 | QVQLVESGGGLVQAGGSLRLSCAASGRIFVYNAMGWYRQAPGKEREFVATITSSGGRTYYADSVKGRFTISRDNAKNTVYLQMNSLKPEDTAVYYCAARPQNNGRNPVYRYNYWGQGTQVTVSS | high polyreactivity
4 | QVQLVESGGGLVQAGGSLRLSCAASGRTFQINGMGWYRQAPGKERELVAAITRSGGITYYADSVKGRFTISRDNAKNTVYLQMNSLKPEDTAVYYCNADSYAYYSWYDYWGQGTQVTVSS | low polyreactivity
5 | QVQLVESGGGLVQAGGSLRLSCAASGRIFVSYAMGWYRQAPGKERELVATINIGSDTYYADSVKGRFTISRDNAKNTVYLQMNSLKPEDTAVYYCAKDYYEGDSYPYPGYEYWGQGTQVTVSS | low polyreactivity
6 | QVQLVESGGGLVQAGGSLRLSCAASGSTFAYYVMGWYRQAPGTERELVAAITSSGGRTYYADSVKGRFTISRDNAKNTVYLQMNSLKPEDTAVYYCAKVSQRGVDNSDYDYWGQGTQVTVSS | high polyreactivity
7 | QVQLVESGGGLVQAGGSLRLSCAASGFTFRWYTMGWYRQAPGKERELFAAITGSGCTTYYADSVKGRFTISRDNAKNTVYLQMNSLKPEDTAVYYCAVVSGSLRTRYTYYYWGLGTQVTVSS | high polyreactivity
8 | QVQLVESGGGLVQAGGSLRLSCAASGIIFYPYAMGWYIQAPGKERELVAGISSSGGSTYYADSVKGRFTISRDNAKNTVYLQMNSLKPEDTAVYYCAVGGERGARIGSNHRGSRYDYWGQGTQVTVSS | high polyreactivity
9 | QDQLVESGGGLVQAGGSLRLSCAASGSIFVNNAMGWYRQAPGKERELVAAISRSGGNTYYADSVKGRFTISRDNAKNTVYLQMNSLKPEDTAVYYCAADFRGRYGYWGQGTQVTVSS | high polyreactivity
10 | QVQLVESGGGLVQAGGSLRLSCAASGSIFVWYDLGWSRQAPGKERELVATISLSGVSTYYADSVKGRFTISRDTAKNTVYLQMISLKPEDTAVYYCAADFVEQGVDDFWGQGSQVTVSS | low polyreactivity
11 | QVQLVESGGGLVQAGGSLRLSCAASGFTFIYYAMGWYRQAPGKERELVAAISTSGGRTYYADSVKGRFTISRDNAKNTVYLQMNCLKPEYTAVYYCAADGHYRYTSRYGLIVRYDYWGQGTQVTVSS | high polyreactivity
12 | QVQLVESGGGLVQAGGSLRLSCAASGRIFTPNAMGWCRQAPGKERELVAAITWSGDNTYADSVKGRFTISRDNAKNTVYLQMNSLKPEDTAVYYCAAAYGYGHKKYGYWGQGTQVTVSS | low polyreactivity
13 | QVQLVESGGGLVQAGGSLRLSCAASGIIFYKNDMGWYRQAPGKERELVAAINRSGGRTYYADSVKGRFTISRDNAKNTVYLQMNSLKPEDTAVYYCATDKVSHRRYDYWGQGTLVTVSS | high polyreactivity
14 | QVQLVESGGGLVQAGGSLRLSCAASGSIFRYAMGWYRQAPGKERELVATISESGGRTYYADSVKGRFTISRDNANNTVYLQMNSLKPEDTAVYYCAADLKYYYGYRPWFQGGYWGQGTQVTVSS | low polyreactivity
15 | QVQLVESGGGLVQAGGSLRLSCASSGNIFDIYAMGWYRQAPGKERELVAAITSSGGSTYYADSVKGRCTISRDNAKNTVYLQMNSLKPEDTAVYYCNAVSLVQKGDYWGQGTQVTVSS | high polyreactivity
16 | QVQLVESGGGLVQAGGSLRLSCAASGITFWGYAMGWYRQAPGKEREFVARINWSGGRTYYAESVKGRFTNSRDNAKNTVYLQMNSLKPEDTAVYYCAATSLIYGYRTYDYWGQGTQVTVSS | high polyreactivity
17 | QVQLVESGGGLVQAGGSLRLSCAASGSFINRYAMGWYRQAPGKERELVAAITQSGGRTYYADSVKGRFTISRDNAKNTVYLQMNSLKPEDTAVYYCNAVRWYLYDYWGQGTQVTVSS | high polyreactivity
18 | HVQLVETGGGIVQAGGSLRLSCAASGFIFRYYARGWYRPSHGKETELVAAIDYSGGSTNYADSVKGRFTISRDYAKNTVSLQMNSLKPEDTAVYYCAAYLGWGYDYWGQGTQVTVSS | low polyreactivity
19 | QVHLVESAGGLVQAGGSLSLSCHASGSTFVWNAMGWYRQAPGKEMELVATMTLSTGSTYYADSVKGRFTISRDNAKNTVYLQMNSLKPEDTAVYYCNTEIFVDIIYDYGLWGQGTQVTVSS | low polyreactivity
20 | QVQLVESGGGLVQAGGSLRLSCAASGLTFGYYAMGWYRQAPGKERELVAAISRGSSTYYADSVKGRFTISRDNAKNTVYLQMNSLKPEDTAVYYCNALFSYGYWRVRYIVTQYDYWGQGTQVTVSS | high polyreactivity
21 | QFQLVESGGGLVQAGGSLRLSCAASGRTFQLNAMGWYRQAPGKERELVAAISTRGGSTNYADSVKGRFTISRDNAKNTVYLQMNRLKPEDTAVYYCAKDPSFTRGFKEGGGYDYWGQGSQVTVSS | high polyreactivity
22 | QVQLVESGGGLVQAGGSLRLSCAASGSIFRDNVMGWYRQAPGKERELVAAITQRGGSTYYADSVKGRFTISRDNAKNTVYVQMNSLKPEDTAVYYCNARRYVLRYNRFYYWGQGTEVTVSS | high polyreactivity

Row | Sequence | polyreactivity (PSR sort gate)
23 | QVQLVESGGGLVQAGGSLRLSCAASGRIFAHYAMGWYRQAPGKERELVAAISSGGSTYYADSVKGRFTISRDNEKNTVYLQINSLKPEDTAVYYCAADYLYPPYYEFYYWGQGTQVTVSS | low polyreactivity
24 | QVQLVESGGGLVQAGGSLRLSCAASGSIFKSYAMGWYRQAPGKERELVAAISWSGTSTYYADSVKGRFTISRDNAKNTVYLQMNSLKPEDTAVYDCAASGDYGEYGYWGQGTQVTVSS | low polyreactivity
25 | QVQLVESGGGLVQEGGSLRLSCAASGSTFEYNAMGWYRQAPGKERELVADISWRGGGTYYADSVKGRFTISRDNAKNTVYLQMNSLKPEDTAVYYCNTVSRNGFYRTRHDYWGQGTQVTVSS | low polyreactivity
26 | QVQLVESGGGLVQAGGSLRLSCAASGSIFGYYAMGWYRQAPGKERELVAVITRDASTYYADSVKGRFTISRDNAKNTVDLQMNSLKPEDTAVYYCAADRWWRRSWVKLDYWGHGTQVTVSS | low polyreactivity
27 | QVQLVESGGGLVQAGGSLRLSCAASGSIFGYYTMGWYIQAPGKERELVARITRGGSTYYADSVKGRFTISRDNAKNTVYLQLNSLKPEDTAVYYCAARRVNAGWTYGLRGNYWGQGTQVTVSS | low polyreactivity
28 | QVQLVESGGGLVQAGGSLRLSCAASGRIFLRTAMGWYRLAPAKERELVASIDSSGGSAYYADSVQGRFTISRDNAKNTVYLQMNSLKPEDTAVFYCNADAYGTPEFTSYAVRYDYGGQGTQVTVSS | low polyreactivity
29 | QVQLVESGGGLVQAGGSLRLSCAATGFTFGWNDMGWYRQARGKEMELVAAISGGGGSTYYADSVKGRFTISRDNAKNTVYLQMNSLKPEDTAVYYCATDSGTLIVKYDYWGQGTQVTVSS | low polyreactivity
30 | QVQLVESGGVLVQAGGSLRLSCAASGFIFVRYAMGWYRQAPGKERELVAAITSSDSNTNYADSVKGRFTISRDNAKNTVYLQMNSLNPEDTAVYYCNARIYTRRYVPHYGFNYWGQGTQVTVSS | low polyreactivity
31 | QVQLVESGGGLVQAGGSLRLSCSASGLIFGNYGMGWYRQAPGKERELVAVITDDDSTTYADSVKGRFTISRDNAKNTFYLQMNSLKPEDTAVYYCNADNLLGRFDSWGQGTLVTVSS | low polyreactivity
32 | QVQLVESGGGLVQAGASLRLSCAASGFTFTPYAMGWYRQAPGKERELVAGITSGVGRKYADSVKGRFTISRDNAKNTVYLQMNSLKPEDTAVYFCAARYDHWGQGTQVTVSS | high polyreactivity
33 | QVQLVESGGGLVQAGGSLRLSCAASGRTFAQYVMGWYRQAPGTERELVAAISGIGGSTYYADSVKGRFTISRDNAKNTVYLQMNSLNPEDTAVYYCAVELYWYPGYDYWGQGTQVTVSS | low polyreactivity
34 | QVQLVESGGGLVQAGGSLRLSCAASGRTFSYYTMVWYRQAPGKERELVARISNRGTNTYYADSVKGRFTISRDNAKNTVYLQMNSLKPEDTAVYYCAKYYYTSIVGYDSWGQGSQVTVSS | low polyreactivity
35 | QVQLVESGGGLVQAGGSLRLSCAASGYTFNYYAMGWYRQAPGKERELVAAISASSDSTYYADSVKGRFTISRDNAKNTVYLQMNSLNPEDTAVYYCAAVSGRYRIYRYDYWGQGTQVTVSS | low polyreactivity
36 | QDQLVESGGGLVQAGGSLRLSCAASGRTFNGYAMGWYRQAPGKDRELVARITYRGGGTYYADSVKGRFTISRDNAKNTVYLQMNILKTEDTAVYYCNARGVQYRYYYWGQGTQVTVSS | high polyreactivity
37 | QVQLVESGGGLVQAGGSLRLSCAASGRIFSQYAMGWYRQAPGKERELVAAISYDDGITYYADSVKGRFTISRDNAKNTVYLQMNSLKPEDTAVYYCNADGSRRYNYWGQGTQVTVSS | low polyreactivity
38 | QVQLVESGGGLVQAGGSLRLSCAASGSTFSYYAMGWYRQAPGKERELVAAISRSGGSTYYADSVKGRFTISRDNAKNTVYFQMNSMKPEDTAVYYCADRGQYRYSFGDYSWGQGTQVTVSS | high polyreactivity
39 | QVQLVESGGALVQAGGSLRLSCAASGFTFRRYAMGWYRQAPGKERELVAAINKSGGSTYYADSVKGRFTISRDKSKNTVYFQMNSLKPEDTAVYYCAARFSYWKTKRAYDWGQGTQVNVSS | high polyreactivity
40 | QVQLVESGGGLDQAGASLRLSCAASGRIYVVNAMGWYREAPGKEMELVATNTRSGGITFYPDSVKGRFTISRDNAKNTVYLQMNSLNPEVTAVYYCNADVLFYTYYTRGRFDFDYWGQGTQVTVSS | low polyreactivity
41 | QVQLVESGGGLVQAGGSLSLICAASGSTITYNAMGWYRQAPGKETELVAAIDWDGDTTYYADSVKGRFTISRDNAKNTVYLQMNSLKPEDTAVYYCAAEFYSLGKAIYEYWGQGTQVTVSS | high polyreactivity
42 | QVQLVESGGGLVQAGGSLRLSCAASGRTFANYAMGWYRQAPGKERELVAAISVSTVSTYYADSVKGRFTISRDNAKNTVYLQMNSLKPEDTAVYYCAATSPYKYWYRYNYWGQGTQVTVSS | high polyreactivity
43 | QVQLVESGGGLVQAGGSLRLSCAASVFTFISYAMGRYRQAPGKEREFVAAITRGGGSTYYADSVKGRFTISRDNAKNTVYLQMNSLKPEDTAVYYCAADPQSTIRDYWGQGTQVTVSS | high polyreactivity

— the nanobody polyreactivity screen of Harvey et al. (2022)
